Values belong to the binder of their own block, whether it stands above or below them.
B1: 2× MBP-BRCA2CT-FLAG-His10 (domain or fragment)
chain: QEKSLKASKSTPDGTIKDRRLFMHHVSLEPITCVPFRTTKERQEIQNPNFTAPGQEFLSKSHLYEHLTLEKSSSNLAVSGHPFYQVSATRNEKMRHLITTGRPTKVFVPPFKTKSHFHRVEQCVRNINLEENRQKQNIDGHGSDDSKNKINDNEIHQFNKNNSNQAVAVTFTKCEEEPLDLITSLQNARDIQDMRIKKKQRQRVFPQPGSLYLAKTSTLPRISLKAAVGGQVPSACSHKQLYTYGVSKHCIKINSKNAESFQFHTEDYFGKESLWTGKGIQLADGGWLIPSNDGKAGKEEFYRALCDTPGVDPKLISRIWVYNHYRWIIWKLAAMECAFPKEFANRCLSPERVLLQLKYRYDTEIDRSRRSAIKKIMERDDTAAKTLVLCVSDIISLSANISETSSNKTSSADTQKVAIIELTDGWYAVKAQLDPPLLAVLKNGRLTVGQKIILHGAELVGSPDACTPLEAPESLMLKISANSTRPARWYTKLGFFPDPRPFPLPLSSLFSDGGNVGCVDVIIQRAYPIQWMEKTSSGLYIFRNEREEEKEAAKYVEAQQKRLEALFTKIQEEFEEHEENTTKPYLPSRALTRQQVRALQDGAELYEAVKNAADPAYLEGYFSEEQLRALNNHRQMLNDKKQAQIQLEIRKAMESAEQKEQGLSRDVTTVWKLRIVSYSKKEKDSVILSIWRPSSDLYSLLTEGKRYRIYHLATSKSKSKSERANIQLAATKKTQYQQLPVSDEILFQIYQPREPLHFSKFLDPDFQPSCSEVDLIGFVVSVVKKTGLAPFVYLSDECYNLLAIKFWIDLNEDIIKPHMLIAASNLQWRPESKSGLLTLFAGDFSVFSASPKEGHFQETFNKMKNTVENIDILCNEAENKLMHILHANDPKWSTPTKDCTSGPYTAQIIPGTGNKLLMSSPNCEIYYQSPLSLCMAKRKSVSTPVSAQMTSKSCKGEKEIDDQKNCKKRRALDFLSRLPLPPPVSPICTFVSPAAQKAFQPPRSCGTKYETPIKKKELNSPQMTPFKKFNEISLLESNSIADEELALINTQALLSGSTGEKQFISVSESTRTAPTSSEDYLRLKRRCTTSLIKEQESSQASTEECEKNKQDTITTKKYI
B3: GST-BRCA2NT-HA-His10 (domain or fragment)
chain: MPIGSKERPTFFEIFKTRCNKADLGPISLNWFEELSSEAPPYNSEPAEESEHKNNNYEPNLFKTPQRKPSYNQLASTPIIFKEQGLTLPLYQSPVKELDKFKLDLGRNVPNSRHKSLRTVKTKMDQADDVSCPLLNSCLSESPVVLQCTHVTPQRDKSVVCGSLFHTPKFVKGRQTPKHISESLGAEVDPDMSWSSSLATPPTLSSTVLIVRNEEASETVFPHDTTANVKSYFSNHDESLKKNDRFIASVTDSENTNQREAASHGFGKTSGNSFKVNSCKDHIGKSMPNVLEDEVYETVVDTSEEDSFSLCFSKCRTKNLQKVRTSKTRKKIFHEANADECEKSKNQVKEKYSFVSEVEPNDTDPLDSNVANQKPFESGSDKISKEVVPSLACEWSQLTLSGLNGAQMEKIPLLHISSCDQNISEKDLLDTENKRKKDFLTSENSLPRISSLPKSEKPLNEETVVNKRDEEQHLESHTDCILAVKQAISGTSPVASSFQGIKKSIFRIRESPKETFNASFSGHMTDPNFKKETEASESGLEIHTVCSQKEDSLCPNLIDNGSWPATTTQNSVALKNAGLISTLKKKTNKFIYAIHDETSYKGKKIPKDQKSELINCSAQFEANAFEAPLTFANADSGLLHSSVKRSCSQNDSEEPTLSLTSSFGTILRKCSRNETCSNNTVISQDLDYKEAKCNKEKLQLFITPEADSLSCLQE
B4: 2× MBP-BRCA2NT-FLAG-His10 (domain or fragment)
chain: MPIGSKERPTFFEIFKTRCNKADLGPISLNWFEELSSEAPPYNSEPAEESEHKNNNYEPNLFKTPQRKPSYNQLASTPIIFKEQGLTLPLYQSPVKELDKFKLDLGRNVPNSRHKSLRTVKTKMDQADDVSCPLLNSCLSESPVVLQCTHVTPQRDKSVVCGSLFHTPKFVKGRQTPKHISESLGAEVDPDMSWSSSLATPPTLSSTVLIVRNEEASETVFPHDTTANVKSYFSNHDESLKKNDRFIASVTDSENTNQREAASHGFGKTSGNSFKVNSCKDHIGKSMPNVLEDEVYETVVDTSEEDSFSLCFSKCRTKNLQKVRTSKTRKKIFHEANADECEKSKNQVKEKYSFVSEVEPNDTDPLDSNVANQKPFESGSDKISKEVVPSLACEWSQLTLSGLNGAQMEKIPLLHISSCDQNISEKDLLDTENKRKKDFLTSENSLPRISSLPKSEKPLNEETVVNKRDEEQHLESHTDCILAVKQAISGTSPVASSFQGIKKSIFRIRESPKETFNASFSGHMTDPNFKKETEASESGLEIHTVCSQKEDSLCPNLIDNGSWPATTTQNSVALKNAGLISTLKKKTNKFIYAIHDETSYKGKKIPKDQKSELINCSAQFEANAFEAPLTFANADSGLLHSSVKRSCSQNDSEEPTLSLTSSFGTILRKCSRNETCSNNTVISQDLDYKEAKCNKEKLQLFITPEADSLSCLQE

Columns and labels:
Experiment in all cases: pull-down
[1] = molecular target: B3
[2] = molecular target: B4
[3] = molecular target: B1
[4] = molecular target: T1, 2× MBP-BRCA2OB2-His10 (human, UniProt P51587 2780-3080)
T1 sequence: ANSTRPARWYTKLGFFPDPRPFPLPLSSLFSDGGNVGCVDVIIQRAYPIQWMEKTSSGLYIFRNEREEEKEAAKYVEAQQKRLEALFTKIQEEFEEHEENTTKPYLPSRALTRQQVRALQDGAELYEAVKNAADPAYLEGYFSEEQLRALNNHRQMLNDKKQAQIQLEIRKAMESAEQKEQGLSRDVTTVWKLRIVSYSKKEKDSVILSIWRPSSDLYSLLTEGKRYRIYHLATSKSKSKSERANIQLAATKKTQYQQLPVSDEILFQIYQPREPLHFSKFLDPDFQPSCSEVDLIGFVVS

Binder: B1
fold stronger than the interaction of MBP-BRCA2NT with GST-BRCA2NT [1]: ~6 fold

binding result [2]: binds
B2: GST-BRCA2N7 (domain or fragment)
chain: VTDSENTNQREAASHGFGKTSGNSFKVNSCKDHIGKSMPNVLEDEVYETVVDTSEEDSFSLCFSKCRTKNLQKVRTSKTRKKIFHEANADECEKSKNQVKEKYSFVSEVEPNDTDPLDSNV

Binder: B3
binding result [3]: binds

Binder: B4
binding result [1]: binds

binding result [4]: binds
binding result [2]: binds
B5: GST-BRCA2N9 (domain or fragment)
chain: ILAVKQAISGTSPVASSFQGIKKSIFRIRESPKETFNASFSGHMTDPNFKKETEASESGLEIHTVCSQKEDSLCPNLIDNGSWPATTTQNSVALKNAGLISTLKKKTNKFIYAIHDETSYKGKKIPKDQKSELINCSAQFEANAFEAPLTFANADSGLLHSSVKRSCSQNDSEEPTLSLTSSFGTILRKCSRNETCSNNTVISQDLDYKEAKCNKEKLQLFITPEADSLSCLQE
